Literature values as cited in US20090098130A1, “GLUCAGON-LIKE PROTEIN-1 RECEPTOR (GLP-1R) AGONIST COMPOUNDS” (priority 2007, published 2009).

B1: h38C2 IgG: humanized aldolase catalytic antibody h38c2 IgG1 (antibody, listed as Homo sapiens, V domains shown)
VH: EVQLVESGGGLVQPGGSLRLSCAASGFTFSNYWMSWVRQSPEKGLEWVSEIRLRSDNYATHYAESVKGRFTISRDNSKNTLYLQMNSLRAEDTGIYYCKTYFYSFSYWGQGTLVTVSS
VL: ELQMTQSPSSLSASVGDRVTITCRSSQSLLHTYGSPYLNWYLQKPGQSPKLLIYKVSNRFSGVPSRFSGSGSGTDFTLTISSLQPEDFAVYFCSQGTHLPYTFGGGTKVEIK
modifications: (1)..(30) FR1; (1)..(23) FR1
B2: m38C2 IgG: mouse monoclonal aldolase antibody with a reactive lysine (antibody, listed as Mus musculus, V domains shown)
VH: EVKLVESGGGLVQPGGTMKLSCEISGLTFRNYWMSWVRQSPEKGLEWVAEIRLRSDNYATHYAESVKGKFTISRDDSKSRLYLQMNSLRTEDTGIYYCKTYFYSFSYWGQGTLVTVSA
VL: DVVMTQTPLSLPVRLGDQASISCRSSQSLLHTYGSPYLNWYLQKPGQSPKLLIYKVSNRFSGVPDRFSGSGSGTDFTLRISRVEAEDLGVYFCSQGTHLPYTFGGGTKLEIK
modifications: (1)..(30) FR1; (1)..(23) FR1

Settings: after incubation with β-diketone

Row | Molecule | enaminone absorbance (λmax=318 nm)
1 | B1 | showed the characteristic enaminone absorbance
2 | B2 | showed the characteristic enaminone absorbance
